Measurements as given in IntAct's records for PubMed 29039417.

B1: BBSome complex member BBS4 (Homo sapiens), Q96RK4 (parent)
chain: MAEERVATRTQFPVSTESQKPRQKKAPEFPILEKQNWLIHLHYIRKDYEACKAVIKEQLQETQGLCEYAIYVQALIFRLEGNIQESLELFQTCAVLSPQSADNLKQVARSLFLLGKHKAAIEVYNEAAKLNQKDWEISHNLGVCYIYLKQFNKAQDQLHNALNLNRHDLTYIMLGKIHLLEGDLDKAIEVYKKAVEFSPENTELLTTLGLLYLQLGIYQKAFEHLGNALTYDPTNYKAILAAGSMMQTHGDFDVALTKYRVVACAVPESPPLWNNIGMCFFGKKKYVAAISCLKRANYLAPFDWKILYNLGLVHLTMQQYASAFHFLSAAINFQPKMGELYMLLAVALTNLEDIENAKRAYAEAVHLDKCNPLVNLNYAVLLYNQGEKKNALAQYQEMEKKVSLLKDNSSLEFDSEMVEMAQKLGAALQVGEALVWTKPVKDPKSKHQTTSTSKPASFQQPLGSNQALGQAMSSAAAYRTLPSGAGGTSQFTKPPSLPLEPEPAVESSPTETSEQIREK
partner: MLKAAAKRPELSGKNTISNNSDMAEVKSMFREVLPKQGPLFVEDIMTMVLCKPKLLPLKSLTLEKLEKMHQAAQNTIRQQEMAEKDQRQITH

Variants of: B1
Conditions: with bbip1_human BBIP1, A8MTZ0

Effect of a mutation on the interaction, with no effect:
MAEERVATRTQFPVSTESQKPRQKKAPEFPILEKQNWLIHLHYIRKDYEACKAVIKEQLQETQGLCEYAIYVQALIFRLEGNIQESLELFQTCAVLSPQSADNLKQVARSLFLLGKHKAAIEVYNEAAKLNQKDWEISHNLGVCYIYLKQFNKAQDQLHNALNLNRHDLTYIMLGKIHLLEGDLDKAIEVYKKAVEFSPENTELLTTLGLLYLQLGIYQKAFEHLGNALTYDPTNYKAILAAGSMMQTHGDFDVALTKYRVVACAVPESPPLWNNIGMCFFGKKKYVAAISCLKRANYLAPFDWKILYNLGLVHLTMQQYASAFHFLSAAINFQPKMGELYMLEAVALTNLEDIENAKRAYAEAVHLDKCNPLVNLNYAVLLYNQGEKKNALAQYQEMEKKVSLLKDNSSLEFDSEMVEMAQKLGAALQVGEALVWTKPVKDPKSKHQTTSTSKPASFQQPLGSNQALGQAMSSAAAYRTLPSGAGGTSQFTKPPSLPLEPEPAVESSPTETSEQIREK [L344E]
MAEERVATRTQFPVSTESQKPRQKKAPEFPILEKQNWLIHLHYIRKDYEACKAVIKEQLQETQGLCEYAIYVQALIFRLEGNIQESLELFQTCAVLSPQSADNLKQVARSLFLLGKHKAAIEVYNEAAKLNQKDWEISHNLGVCYIYLKQFNKAQDQLHNALNLNRHDLTYIMLGKIHLLEGDLDKAIEVYKKAVEFSPENTELLTTLGLLYLQLGIYQKAFEHLGNALTYDPTNYKAILAAGSMMQTHGDFDVALTKYRVVACAVPESPPLWNNIGMCFFGKKKYVAAISCLKRANYLAPFDWKILYNLGLVHLTMQQYASAFHFLSAAINFQPKMGELYMLLAVALTNLEDIENAKRAYAEAVHLDKCNPLVNLNYAVLLYNQGEKKNALAQYQEMEKKVSLLKDNSSLEFDSEMVEMAQKLGAALQVGEALVWTKPVKDPASKHQTTSTSKPASFQQPLGSNQALGQAMSSAAAYRTLPSGAGGTSQFTKPPSLPLEPEPAVESSPTETSEQIREK [K444A]
MAEERVATRTQFPVSTESQKPRQKKAPEFPILEKQNWLIHLHYIRKDYEACKAVIKEQLQETQGLCEYAIYVQALIFRLEGNIQESLELFQTCAVLSPQSADNLKQVARSLFLLGKHKAAIEVYNEAAKLNQKDWEISHNLGVCYIYLKQFNKAQDQLHNALNLNRHDLTYIMLGKIHLLEGDLDKAIEVYKKAVEFSPENTELLTTLGLLYLQLGIYQKAFEHLGNALTYDPTNYKAILAAGSMMQTHGDFDVALTKYRVVACAVPESPPLWNNIGMCFFGKKKYVAAISCLKRANYLAPFDWKILYNLGLVHLTMQQYASAFHFLSAAINFQPKMGELYMLLAVALTNLEDIENAKRAYAEAVHLDKCNPLVNLNYAVLLYNQGEKKNALAQYQEMEKKVSLLKDNSSLEFDSEMVEMAQKLGAALQVGEALVWTKPVKDPKSKHQTTSTSKPASFQQPEGSNQALGQAMSSAAAYRTLPSGAGGTSQFTKPPSLPLEPEPAVESSPTETSEQIREK [L462E]
MAEERVATRTQFPVSTESQKPRQKKAPEFPILEKQNWLIHLHYIRKDYEACKAVIKEQLQETQGLCEYAIYVQALIFRLEGNIQESLELFQTCAVLSPQSADNLKQVARSLFLLGKHKAAIEVYNEAAKLNQKDWEISHNLGVCYIYLKQFNKAQDQLHNALNLNRHDLTYIMLGKIHLLEGDLDKAIEVYKKAVEFSPENTELLTTLGLLYLQLGIYQKAFEHLGNALTYDPTNYKAILAAGSMMQTHGDFDVALTKYRVVACAVPESPPLWNNIGMCFFGKKKYVAAISCLKRANYLAPFDWKILYNLGLVHLTMQQYASAFHFLSAAINFQPKMGELYMLLAVALTNLEDIENAKRAYAEAVHLDKCNPLVNLNYAVLLYNQGEKKNALAQYQEMEKKVSLLKDNSSLEFDSEMVEMAQKLGAALQVGEALVWTKPVKDPKSKHQTTSTSKPASFQQPLGSNQALGQAMSSAAAYRTLPSGAGGTAQFTKPPSLPLEPEPAVESSPTETSEQIREK [S489A]
MAEERVATRTQFPVSTESQKPRQKKAPEFPILEKQNWLIHLHYIRKDYEACKAVIKEQLQETQGLCEYAIYVQALIFRLEGNIQESLELFQTCAVLSPQSADNLKQVARSLFLLGKHKAAIEVYNEAAKLNQKDWEISHNLGVCYIYLKQFNKAQDQLHNALNLNRHDLTYIMLGKIHLLEGDLDKAIEVYKKAVEFSPENTELLTTLGLLYLQLGIYQKAFEHLGNALTYDPTNYKAILAAGSMMQTHGDFDVALTKYRVVACAVPESPPLWNNIGMCFFGKKKYVAAISCLKRANKLAPFDWKILYNLGLVHLTMQQYASAFHFLSAAINFQPKMGELYMLLAVALTNLEDIENAKRAYAEAVHLDKCNPLVNLNYAVLLYNQGEKKNALAQYQEMEKKVSLLKDNSSLEFDSEMVEMAQKLGAALQVGEALVWTKPVKDPKSKHQTTSTSKPASFQQPLGSNQALGQAMSSAAAYRTLPSGAGGTSQFTKPPSLPLEPEPAVESSPTETSEQIREK [Y298K]

Effect of a mutation on the interaction, disrupting interaction strength:
MAEERVATRTQFPVSTESQKPRQKKAPEFPILEKQNWLIHLHYIRKDYEACKAVIKEQLQETQGLCEYAIYVQALIFRLEGNIQESLELFQTCAVLSPQSADNLKQVARSLFLLGKHKAAIEVYNEAAKLNQKDWEISHNLGVCYIYLKQFNKAQDQLHNALNLNRHDLTYIMLGKIHLLEGDLDKAIEVYKKAVEFSPENTELLTTLGLLYLQLGIYQKAFEHLGNALTYDPTNYKAILAAGSMMQTHGDFDVALTKYRVVACAVPESPPLWNNIGMCFFGKKKYVAAISCLKRANYLAPFDWKILYNLGLVHLTMQQYASAFHFLSAAINFQPKMGELYMLLAVATTNLEDIENAKRAYAEAVHLDKCNPLVNLNYAVLLYNQGEKKNALAQYQEMEKKVSLLKDNSSLEFDSEMVEMAQKLGAALQVGEALVWTKPVKDPKSKHQTTSTSKPASFQQPLGSNQALGQAMSSAAAYRTLPSGAGGTSQFTKPPSLPLEPEPAVESSPTETSEQIREK [L348T]
